In PMC6294515, “Structural basis of the specific interaction of SMRT corepressor with histone deacetylase 4” (Nucleic Acids Research, 2018):

Columns and labels:
HDAC4 = details: cited from earlier work
Text: In contrast to other HDACs, class IIa HDACs have low deacetylase activity ([33]). However, their HDAC domains are directly involved in the transcriptional repression of several genes by forming a supra-complex with the NCoR/SMRT-HDAC3 complex ([16],[17]).

HDAC4c D759Y = details: HDAC4c mutant versus wild-type; cited from earlier work
Text: Next, we analyzed the mutational effects of SM1 mutants by OPTHiS screening (Figure 5A). […] In the peptide-complex structures, G+1, S+2 and T+4 residues on both peptides interact, directly or through water molecules, with residues on the cleft wall of the structural zinc-binding subdomain (Figure 3E). Mutations in this peptide region (G+1R, S+2D and T+4N/T+4A) altered the binding affin ... || Among the seven HDACs whose catalytic domain structures have been reported, HDAC4c is unique in that it has an open conformation when it binds to non-peptide molecules. In agreement with this, mutations at the ^+1GSI^+3 residues of two motifs and R+9 residue of the SM1 lead to a loss of its binding activity to HDAC4c/-5c (Figures 1 and 5). The class IIa HDAC-specific residues (D759, H842, and F871), which are located at the cleft to and entrance to the catalytic zinc-binding site, interact directly or indirectly with these residues of bound peptides (Figure 3D and E). Further, HDAC4c mutants o ...

HDAC4c = test: Interaction with HDAC4c (yeast two-hybrid, GST pull-down, BiFC); details: for interaction with HDAC4c, domain mapping: yeast two-hybrid only, strain EGY48, LexA-fused HDAC4c and SRD3c deletion constructs, liquid β-galactosidase assay
HDAC5c = test: Interaction with HDAC5c (yeast two-hybrid, GST pull-down, BiFC); details: for interaction with HDAC5c, domain mapping: yeast two-hybrid only, strain EGY48, LexA-fused HDAC5c and SRD3c deletion constructs, liquid β-galactosidase assay

Molecule	interaction with HDAC4c, domain mapping (HDAC4c)	interaction with HDAC5c, domain mapping (HDAC5c)	also measured
SMRT: silencing mediator for retinoid and thyroid receptor, general corepressor	–	–	change in deacetylase activity of HDAC4 in the presence of SMRT (HDAC4): lack of noticeable changes in the deacetylase activity of HDAC4
GSITQGIPR [SM1, conserved GSI motif 1361-1369 of SRD3c, …]	–	–	binding affinity to HDAC4c D759Y (HDAC4c D759Y): abrogated interactions
I-A: SRD3c deletion construct K1316–G1390 (protein, UniProt Q9Y618 1316-1390, looked up, fragment) GRVGRAISSASIEGLMGRAIPPERHSPHHLKEQHHIRGSITQGIPRSYVEAQEDYLRREAKLLKREGTPPPPPPS	independently interacted with HDAC4c/-5c	independently interacted with HDAC4c/-5c	–
II: SRD3c deletion construct P1396–S1515 (protein, UniProt Q9Y618 1396-1515, looked up, fragment) AYKTQALGPLKLKPAHEGLVATVKEAGRSIHEIPREELRHTPELPLAPRPLKEGSITQGTPLKYDTGASTTGSKKHDVRSLIGSPGRTFPPVHPLDVMADARALERACYEESLKSRPGTA	independently interacted with HDAC4c/-5c, although the binding strength of region II was relatively weaker than that of region I-A	independently interacted with HDAC4c/-5c, although the binding strength of region II was relatively weaker than that of region I-A	–
SRD3n: N-terminal region of SRD3 (R1128–E1289) (protein, UniProt Q9Y618 1128-1289, looked up, fragment) GMSVQLHVPYSEHAKAPVGPVTMGLPLPMDPKKLAPFSGVKQEQLSPRGQAGPPESLGVPTAQEASVLRGTALGSVPGGSITKGIPSTRVPSDSAITYRGSITHGTPADVLYKGTITRIIGEDSPSRLDRGREDSLPKGHVIYEGKKGHVLSYEGGMSVTQC	–	–	binding to HDAC4c (HDAC4c; yeast two-hybrid (β-galactosidase), GST pull-down, BiFC in HEK293 cells, result in words): marginal interaction; binding to HDAC5c (HDAC5c; yeast two-hybrid (β-galactosidase), in vitro GST pull-down, BiFC in HEK293 cells, result in words): marginal interaction
